Five molecules from patent US20180346564A1 (TEIJIN PHARMA, published 2018) can be followed below.

[ ]: non-standard residue; d: D form. pT = C[C@@H](OP(=O)(O)O)[C@H](N)C(=O)O; pS = N[C@@H](COP(=O)(O)O)C(=O)O

Assay [1] has as its target T1, Peptide No. 5, pT217, H-GC-GSRSRTPSLP(pT)PPTREPKKVAVV-OH (human, phosphothreonine (pT) at peptide position 13 (tau Thr217)).
T1 peptide: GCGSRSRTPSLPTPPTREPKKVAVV
Briefly: ELISA, coated peptide. Put shortly:
(§1)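 Wells were coated overnight at 4 °C with 50 μL of peptide, or its bovine serum albumin or keyhole limpet hemocyanin conjugate, at 1 μg/mL in cold PBS, then blocked overnight at 4 °C with 3% BSA-PBS. Purified antibody at 150 ng/mL in 3% BSA-PBS was applied for 90 minutes at room temperature, followed by alkaline phosphatase-labelled goat anti-human IgG (H+L) diluted 2000-fold for 60 minutes. Antibody binding was recorded as absorbance. After 40 minutes of pNPP development, plates were read at 405 nm against a 550 nm reference.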

Assay [2] addresses T2, Peptide No. 1, pS46, H-GLKE(pS)PLQT-OH (human, SMILES CC(C)C[C@H](NC(=O)CN)C(=O)N[C@@H](CCCCN)C(=O)N[C@@H](CCC(=O)O)C(=O)N[C@@H](COP(=O)(O)O)C(=O)N1CCC[C@H]1C(=O)N[C@@H](CC(C)C)C(=O)N[C@@H](CCC(N)=O)C(=O)N[C@H](C(=O)O)[C@@H](C)O).
T2 peptide: H-GLKE[pS]PLQT-OH
Briefly: ELISA, coated peptide. The method, boiled down:
as §1

Assay [3] has as its target T3, Peptide No. 4, pT212/pS214, H-GCGSPGTPGSRSR(pT)P(pS)LPTPPTREPK-OH (human, phosphothreonine (pT) at peptide position 14 (tau Thr212); phosphoserine (pS) at peptide position 16 (tau Ser214)).
T3 peptide: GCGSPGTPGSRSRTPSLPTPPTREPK
In words: ELISA, coated peptide. The method, boiled down:
as §1

Assay [4] deals with T4, Peptide No. 7, pS396/pS400/pS404, H-GC-RENAKAKTDHGAEIVYK(pS)PVV(pS)GDT(pS)PRHL-OH (human, phosphoserine (pS) at peptide positions 20, 24 and 28 (tau Ser396, Ser400, Ser404)).
T4 peptide: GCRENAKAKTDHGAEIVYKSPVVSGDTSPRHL
Briefly: ELISA, coated peptide. Put shortly: as §1

Assay [5] has as its target T5, Peptide No. 2, pS199, H-SGYS(pS)PGSPGC-OH (human, SMILES N[C@@H](CO)C(=O)NCC(=O)N[C@@H](Cc1ccc(O)cc1)C(=O)N[C@@H](CO)C(=O)N[C@@H](COP(=O)(O)O)C(=O)N1CCC[C@H]1C(=O)NCC(=O)N[C@@H](CO)C(=O)N1CCC[C@H]1C(=O)NCC(=O)N[C@@H](CS)C(=O)O).
T5 peptide: H-SGYS[pS]PGSPGC-OH
Briefly: ELISA, coated peptide. Put shortly: as §1

In assay [6] the target is T6, Peptide No. 8, pS412, H-NV(pS)STGSC-OH (human, SMILES CC(C)[C@H](NC(=O)[C@@H](N)CC(N)=O)C(=O)N[C@@H](COP(=O)(O)O)C(=O)N[C@@H](CO)C(=O)N[C@H](C(=O)NCC(=O)N[C@@H](CO)C(=O)N[C@@H](CS)C(=O)O)[C@@H](C)O).
T6 peptide: H-NV[pS]STGSC-OH
Briefly: ELISA, coated peptide. The method, boiled down:
as §1

The target of assay [7] is T7, Peptide No. 3, pS202, H-SSPG(pS)PGTPC-OH (human, SMILES C[C@@H](O)[C@H](NC(=O)CNC(=O)[C@@H]1CCCN1C(=O)[C@H](COP(=O)(O)O)NC(=O)CNC(=O)[C@@H]1CCCN1C(=O)[C@H](CO)NC(=O)[C@@H](N)CO)C(=O)N1CCC[C@H]1C(=O)N[C@@H](CS)C(=O)O).
T7 peptide: H-SSPG[pS]PGTPC-OH
Briefly: ELISA, coated peptide. Put shortly:
as §1

For assay [8], the target named is T8, Peptide No. 6, pT231, H-KVAVVR(pT)PPKSPS-OH (human).
T8 peptide: H-KVAVVR[pT]PPKSPS-OH
Briefly: ELISA, coated peptide. Put shortly: as §1

For assay [9], the target named is T9, His-tagged non-phosphorylated tau protein 4R0N (human, UniProt P10636 2-758).
T9 construct: Produced by Escherichia coli; negative control in SPR; also called ATGen Cat. No. ATGP0795
Briefly: SPR Biacore T200, antigen immobilized. As for the experimental part: The binding affinities of the hyperphosphorylated tau protein 4R2N (hpTau), non-phosphorylated tau protein 4R0N, monophosphorylated tau peptide 1×P, triphosphorylated tau peptide 3×P, and non-phosphorylated tau peptide Non P with each antibody were measured with an SPR system Biacore T200 (GE Healthcare Japan), in accordance with the instruction manual for evaluation attached to the system.
The His-tagged hpTau or Tau proteins were each immobilized on a sensor chip using an HBS-N buffer (code No. BR-1003-69) as the immobilization reaction solution and allowing a nickel chloride solution to react with the NTA sensor chip for bonding Ni to NTA. Subsequently, the sensor chip was activated with a mixed solution of N-ethyl-N′-(3-dimethylaminopropyl)-carbodiimide hydrochloride (1-ethyl-3-(3-dimethylaminopropyl)carbodiimide hydrochloride: EDC) and N-hydroxysuccinimide (NHS). A solution of each of the His-tagged proteins, adjusted to a concentration of 100 to 500 ng/mL with a 4-(2-hydroxyethyl)-1-piperazineethanesulfonic acid (HEPES) buffer (0.01 M HEPES, 150 mM KCl, 2 mM DTT, 1 mM EDTA, pH 7.2), was applied to the sensor chip, whereby the protein was immobilized on the sensor chip through covalent bonds with the Ni-NTA. The remaining active NHS was blocked with ethanolamine, and Ni ions were removed with an EDTA solution (Ni-affinity amine coupling: see International Publication No. WO2005/022156). The antigen peptides (1×P, 3×P, and Non P) were each immobilized on a sensor chip by activating the NTA sensor chip with a mixed solution of N-ethyl-N′-(3-dimethylaminopropyl)-carbodiimide (EDC) hydrochloride and N-hydroxysuccinimide (NHS), and then applying a solution of the antigen peptide diluted with a 10 mM sodium acetate buffer (pH: 4 to 4.5) to 1 to 10 μM to the sensor chip, whereby the peptide was covalently bound to the sensor chip. The remaining active NHS was blocked with ethanolamine. Thus, sensor chips immobilized respectively with the proteins and peptides mentioned above were produced.
A CAPS buffer (pH 10.5) was applied to these sensor chips at 37° C. to stabilize the protein- or peptide-immobilized surfaces of the sensor chips.

T9 sequence (P10636 other isoform, or with tags, fused parts or gaps limits assumed): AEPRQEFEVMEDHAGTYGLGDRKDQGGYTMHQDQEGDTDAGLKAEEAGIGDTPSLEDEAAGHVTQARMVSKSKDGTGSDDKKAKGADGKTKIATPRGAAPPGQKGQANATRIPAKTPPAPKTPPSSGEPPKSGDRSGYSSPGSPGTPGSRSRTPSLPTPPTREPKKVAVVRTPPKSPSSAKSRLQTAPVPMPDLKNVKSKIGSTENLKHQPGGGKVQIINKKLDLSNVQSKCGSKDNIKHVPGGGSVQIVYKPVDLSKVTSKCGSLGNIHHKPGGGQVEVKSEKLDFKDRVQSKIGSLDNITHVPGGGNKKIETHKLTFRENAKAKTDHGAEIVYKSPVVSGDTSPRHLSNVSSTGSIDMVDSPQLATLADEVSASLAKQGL

B1: humanized antibody L46H11 (antibody, human IgG1, kappa)
heavy: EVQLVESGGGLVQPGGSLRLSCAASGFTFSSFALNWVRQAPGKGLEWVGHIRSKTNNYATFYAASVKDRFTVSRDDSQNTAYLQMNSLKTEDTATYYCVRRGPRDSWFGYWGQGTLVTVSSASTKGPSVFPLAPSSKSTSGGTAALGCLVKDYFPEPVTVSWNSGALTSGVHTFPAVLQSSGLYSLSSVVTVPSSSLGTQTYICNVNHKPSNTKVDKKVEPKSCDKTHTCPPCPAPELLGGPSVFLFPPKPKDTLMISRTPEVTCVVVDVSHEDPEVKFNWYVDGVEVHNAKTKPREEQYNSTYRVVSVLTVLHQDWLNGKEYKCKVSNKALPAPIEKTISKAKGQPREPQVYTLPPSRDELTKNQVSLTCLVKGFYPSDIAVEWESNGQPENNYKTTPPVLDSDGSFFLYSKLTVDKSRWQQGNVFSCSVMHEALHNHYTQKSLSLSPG
light: DIVMTQSPLSLPVTLGEPASISCRSSQSIVHSNGNTYLEWYLQKPGQSPQLLIYTVSNRFSGVPDRFSGSGSGTDFTLKISRVEAEDLGVYYCFQGSHLPLTFGGGTKVEIKRTVAAPSVFIFPPSDEQLKSGTASVVCLLNNFYPREAKVQWKVDNALQSGNSQESVTEQDSKDSTYSLSSTLTLSKADYEKHKVYACEVTHQGLSSPVTKSFNRGEC
Take B1: the binding result in assay [1], in assay [2], in [3], in [4], in assay [5] and in assay [6] was “no binding (tested: OD value <0.5; antibody 150 ng/mL)” each time. Further, the values for the binding result in [7], in [8] and in [9] were “no binding (tested: OD value <0.5; antibody 150 ng/mL)”, “no binding (tested: OD value <0.5; antibody 150 ng/mL)” and “no binding (tested: 0.2 to 1 nM)”, respectively.

B2: humanized antibody L48H12 (antibody, human IgG1, kappa, V domains shown)
VH: EVQLVESGGGLVQPGGSLRLSCAASGFAFNSFALNWVRQAPGKGLEWVGHIRSKTNNYATFYADSVKDRFTVSRDDSKNTAYLQMNSLKTEDTATYYCVRRGPRDSWFGYWGQGTLVTVSS
VL: DIVMTQSPLSLPVTLGDPASISCRSSQNIVHSNGNTYLEWYQQKPGQSPQLLIYTVSNRFSGVPDRFSGSGSGTDFTLKISRVEAEDLGVYYCFQGSHLPLTFGGGTKVEIKR
notes: VL48/VH12, human IgG1/kappa
Turning to B2, the binding result in assay [1], in [2], in [3], in [4], in [5] and in assay [6] was “no binding (tested: OD value <0.5; antibody 150 ng/mL)” throughout. Also, the binding result in [7] was “no binding (tested: OD value <0.5; antibody 150 ng/mL)”; in assay [8], “no binding (tested: OD value <0.5; antibody 150 ng/mL)”; in assay [9], “no binding (tested: 0.2 to 1 nM)”.

B3: humanized antibody L47H11 (antibody, human IgG1, kappa, V domains shown)
VH: EVQLVESGGGLVQPGGSLRLSCAASGFTFSSFALNWVRQAPGKGLEWVGHIRSKTNNYATFYAASVKDRFTVSRDDSQNTAYLQMNSLKTEDTATYYCVRRGPRDSWFGYWGQGTLVTVSS
VL: DIVMTQSPLSLPVTLGDPASISCRSSQSIVHSNGNTYLEWYQQKPGQSPQRLIYTVSNRFSGVPDRFSGSGSGTDFTLKISRVEAEDLGVYYCFQGSHLPLTFGGGTKVEIKR
notes: VL47/VH11, human IgG1/kappa
On to B3, for which the binding result in assay [1], in [2], in assay [3], in assay [4], in assay [5] and in assay [6] was “no binding (tested: OD value <0.5; antibody 150 ng/mL)” each time. The binding result in assay [7] is “no binding (tested: OD value <0.5; antibody 150 ng/mL)”; in assay [8] it was “no binding (tested: OD value <0.5; antibody 150 ng/mL)”; in assay [9], “no binding (tested: 0.2 to 1 nM)”.

B4: humanized antibody L48H47 (antibody, human IgG1, kappa, V domains shown)
VH: EVQLVESGGGLVQPGGSLRLSCAASGFAFNSFALNWVRQAPGKGLEWVGHIRSKTNNYATFYAASVKDRFTVSRDDSQNTAYLQMNSLKTEDTATYYCVRRGPRDSWFGYWGQGTLVTVSS
VL: DIVMTQSPLSLPVTLGDPASISCRSSQNIVHSNGNTYLEWYQQKPGQSPQLLIYTVSNRFSGVPDRFSGSGSGTDFTLKISRVEAEDLGVYYCFQGSHLPLTFGGGTKVEIKR
notes: VL48/VH47, human IgG1/kappa
As for B4, the binding result in assay [1], in assay [2], in assay [3], in assay [4], in assay [5] and in [6] was “no binding (tested: OD value <0.5; antibody 150 ng/mL)” each time. Besides, the binding result was “no binding (tested: OD value <0.5; antibody 150 ng/mL)” in assay [7], “no binding (tested: OD value <0.5; antibody 150 ng/mL)” in assay [8] and “no binding (tested: 0.2 to 1 nM)” in [9].

B5: humanized antibody L47H65 (antibody, human IgG1, kappa, V domains shown)
VH: EVQLVESGGGLVQPGGSLRLSCAASGFAFNSFALNWVRQAPGKGLEWVVHIRSKTNNYATFYAASVKDRFTVSRDDSQNTAYLQMNSLKTEDTATYYCVRRGPRDSWFGYWGQGTLVTVSS
VL: DIVMTQSPLSLPVTLGDPASISCRSSQSIVHSNGNTYLEWYQQKPGQSPQRLIYTVSNRFSGVPDRFSGSGSGTDFTLKISRVEAEDLGVYYCFQGSHLPLTFGGGTKVEIKR
Take B5: the binding result in [1], in assay [2], in assay [3], in assay [4], in [5] and in [6] was “no binding (tested: OD value <0.5; antibody 150 ng/mL)” throughout. In addition, the binding result is recorded as “no binding (tested: OD value <0.5; antibody 150 ng/mL)” in assay [7], “no binding (tested: OD value <0.5; antibody 150 ng/mL)” in assay [8] and “no binding (tested: 0.2 to 1 nM)” in assay [9].
